This note sets out measurements from patent US20240270826A1 (NATIONAL RESEARCH COUNCIL OF CANADA, published 2024).

B1: NRCoV2-06 VHH-Fc (Fc fusion)
chain: EVQLVQSGGGLVQAGESLRLSCAASVSTFSSYAMGWYRQAPGKQRELVASIGFVGATYYIDSVKGRFTISRDNAKKTAYLQMNDLKPDDTAVYYCNARHYGGSEYWGQGTQVTVSS
notes: bivalent VHH-Fc
B2: NRCoV2-05 VHH-Fc (Fc fusion)
chain: EVKLVQSGGGLVQPGGSLRLSCAASGFIFSNYAMNWVRQAPGKGLEWVSGINSGGGDTRYADSVKGRFTVSRDNAKNTLYLQMNSLKPEDTGVYYCSKGPVSSYYGSGYDYRGQGTQVTVSS
notes: bivalent VHH-Fc
B3: NRCoV2-02 VHH-Fc (Fc fusion)
chain: EVQLVESGGGLVQAGGSLRLSCAASGFTFSNYAMNWVRQAPGKGLEWVSGISGRGDDTRYADSVKGRFTISRDNAKNTLFLQMRSLRPEDTGVYRCTKGPDLYYFGSGYSDRGQGTQVTVSS
notes: bivalent VHH-Fc
B4: NRCoV2-14 VHH-Fc (Fc fusion)
chain: EVQLVSSGGGLVQAGGSLRLSCEASGTTFSHYAVGWYRQAPGKQREWVASISVFGSTTYGGSVAGRFTISRDNDKNTVDLQMNSLKPEDTAVYYCHAVNADIGGDYWGQGTQVTVSS
notes: bivalent VHH-Fc
B5: NRCoV2-04 VHH-Fc (Fc fusion)
chain: AVQLVDSGGGLVQPGGSLRLSCAASGSPFSNVVMAWYRQAPGKQRERVAFISGGGIADYIMSVKGRFTISRDNAKNTVYLQMNSLKPEDTAVYYCWSSYESTWGQGTQVTVSS
notes: bivalent VHH-Fc
B6: NRCoV2-03 VHH-Fc (Fc fusion)
chain: EVQLVSSGGGLVQAGGSLRLSCTASGITFSYYAMGWYRQAPGQPRELVASMSNMDSTIYADSVKGRFTISRDNAKTTIYLQMNNLKPEDTAVYFCNIYGPTYSTRRNEYWGQGTQVTVSS
notes: bivalent VHH-Fc
B7: NRCoV2-S2G3 VHH-Fc (Fc fusion)
chain: QVQLVQSGGGSVQAGGSLRLSCAASGSTFGIFLMGWRRQAPGKQRELVAHITSGGATNYADSVKGRFTISRDNAKNTVYLQMNSLEPEDTAVYYCYTTKRDDASVYWGQGTQVTVSS
notes: bivalent VHH-Fc
B8: NRCoV2-S2A4 VHH-Fc (Fc fusion)
chain: QVQLVQSGGGLVQAGGSLRLSCAVSGSPFRSNVMEWYRQAPGKQRELVASISTGGSRTYTDSVKGRFTISRDNAKNEAFLQMNSLKPEDTAVYYCHAAARDSHGIYLLDTWGQGTQVTVSS
notes: bivalent VHH-Fc
B9: NRCoV2-MRed20 VHH-Fc (Fc fusion)
chain: EVQLVESGGGSVQAGGSLRLSCAASGLSFSSYDMGWFRQAPGKEREFVAAIRESGSGTYYADSVKGRFTISRDNAKNTVYLQVSSLKPEDTAVYTCAAKPPFYGSGTYSTPRAYLYWGQGTQVTVSS
notes: bivalent VHH-Fc
B10: NRCoV2-MRed18 VHH-Fc (Fc fusion)
chain: EVQLVESGGGLVQPGGSLRLSCAASTTVFGRNAMGWYRQAPGKERELVATVSDGGTPNYADSVKGRFTISRDNAKNTIYLQMNSLEPEDTAVYYCNYYNYYYGRNFWGQGTQVTVSS
notes: bivalent VHH-Fc
B11: NRCoV2-10 VHH-Fc (Fc fusion)
chain: QLQLQESGGGLVQPGGSLTLSCAASGNTFSRSNMHWYRQAPGAQREWVAAISSRGISTYAYSAKGRFTISRDNAKNTVSLQMNSLKPEDTAVYYCYAADDLGDYWGQGTQVTVSS
notes: bivalent VHH-Fc
B12: NRCoV2-S2F3 VHH-Fc (Fc fusion)
chain: EVQLVQSGGGLVQAGGSLRLSCATSVRILSVPAMGWYRQAPGKEREMVAVITSGGSTNYADSVKGRFTISRDNAKNTVYLQMNSLKLEDTAVYQCNLRDILSQPFWGQGTQVTVSS
notes: bivalent VHH-Fc
B13: NRCoV2-MRed19 VHH-Fc (Fc fusion)
chain: EVQLVESGGGLVQPGGSLRLSCAASTIIFKGQTMGWFRQAPGNERELVATMTTSGSANYADSVKGRFTISRDNEKTVTLQMNSLKPEDTALYYCYMHSVYYGIDYWGKGTQVTVSS
notes: bivalent VHH-Fc
B14: NRCoV2-SR16 VHH-Fc (Fc fusion)
chain: QVQLVQSAGGLVQAGGSLRLSCVVSGTTFSRYHMGWHRQAPGKQRDFVAGISTSGAVTYADSAKGRFTISRDNAKNTVYLEMNSLKLEDTALYYCNTGGWDYRSSTFIMGLNWGQGTQVTVSS
notes: bivalent VHH-Fc
B15: NRCoV2-MRed03 VHH-Fc (Fc fusion)
chain: EVQLVESGGGLVQPGGSLRLSCAAIGFTLDYYAIGWFRQAPGKEREGVSCISSSDGSTYYADSVKGRFTISRDNAKNTVYLQMNSLKPEDTAVYYCATDAFATCDSWYAQIAQYDFRGQGTQVTVSS
notes: bivalent VHH-Fc
B16: NRCoV2-MRed07 VHH-Fc (Fc fusion)
chain: EVQLVESGGGLVQPGGSLTLSCAASGSIGPFNTMGWYRQAPGNQREPAAIITRGGVTNYADSVKGRFTISRDNAKNAVYLQMDSLKPDDTAVYYCYANYGWAIPYWGNGTQVTVSS
notes: bivalent VHH-Fc
B17: NRCoV2-MRed06 VHH-Fc (Fc fusion)
chain: EVQLVESGGGLVQAGGSLRLSCAASGFTLAYYAIGWFRQAPGKEREGVSCISSSDGSAHYADSVKGRFTISRDNAKNTVSLQMNSLKPEDTAVYYCATDSFSSCSDYESGMDFWGKGTQVTVSS
notes: bivalent VHH-Fc
B18: NRCoV2-MRed25 VHH (VHH)
VHH: EVQLVESGGGLVQAGGSLRLSCAASGHTFSRYGMGWFRQAPGKEREFVAAISWRGDSTYYRDSVNGRFTISRDNAKNTVYLGMNSLKPEDTAVYYCAAEMWGTATIVASRYTYWGQGTQVTVSS

In one experiment the target is SARS-CoV-2 S1-NTD (aa16-305) (SARS-CoV-2 Wuhan, UniProt P0DTC2 16-305). Put plainly: ELISA. For orientation: In an ELISA, binding on a coated surface is turned into a signal by an enzyme label.
With B1, the binding result is “no binding (tested: 13 nM)”.

In the case of B2, the binding result is “no binding (tested: 13 nM)”.

For B3, the binding result is reported as “no binding (tested: 13 nM)”.

B4: the binding result was “no binding (tested: 13 nM)”.

On to B5, for which the binding result was “no binding (tested: 13 nM)”.

Turning to B6, the binding result was “no binding (tested: 13 nM)”.

Consider B7, for which the binding result is “no binding (tested: 13 nM)”.

For the molecule B8, the binding result was “no binding (tested: 13 nM)”.

As to B9, the binding result is “no binding (tested: 13 nM)”.

B10: the binding result is given as “no binding (tested: 13 nM)”.

For the molecule B11, the binding result is “no binding (tested: 13 nM)”.

As for B12, the binding result is “no binding (tested: 13 nM)”.

B13: the binding result was “no binding (tested: 13 nM)”.

A further experiment deals with SARS-CoV spike (S) (SARS-CoV, UniProt P59594 14-1195). Briefly: ELISA.
With B1, the binding result is “no binding (tested: 13 nM)”.

Consider B2, for which the binding result is listed as “no binding (tested: 13 nM)”.

As for B3, the binding result is listed as “no binding (tested: 13 nM)”.

With B4, the binding result is reported as “no binding (tested: 13 nM)”.

As for B5, the binding result is given as “no binding (tested: 13 nM)”.

In the case of B14, the binding result was “no binding (tested: 13 nM)”.

Take B6: the binding result is recorded as “no binding (tested: 13 nM)”.

B15: the binding result is on record as “no binding (tested: 13 nM)”.

Take B16: the binding result is “no binding (tested: 13 nM)”.

With B17, the binding result is “no binding (tested: 13 nM)”.

Turning to B11, the binding result is “no binding (tested: 13 nM)”.

The target of the next experiment is T1, SARS-CoV-2 S2 (aa686-1208) (Wuhan) (SARS-CoV-2 Wuhan, UniProt P0DTC2 686-1208).
T1 construct: NRC; FLAG, 6xHis tags
Put plainly: ELISA.
As to B1, the binding result is “no binding (tested: 13 nM)”.

For B2, the binding result is on record as “no binding (tested: 13 nM)”.

Consider B3, for which the binding result was “no binding (tested: 13 nM)”.

With B4, the binding result is “no binding (tested: 13 nM)”.

With B5, the binding result is given as “no binding (tested: 13 nM)”.

For B14, the binding result was “no binding (tested: 13 nM)”.

On to B6, for which the binding result is “no binding (tested: 13 nM)”.

Consider B15, for which the binding result is “no binding (tested: 13 nM)”.

For the molecule B16, the binding result was “no binding (tested: 13 nM)”.

B17: the binding result is “no binding (tested: 13 nM)”.

B11: the binding result is “no binding (tested: 13 nM)”.

The next experiment concerns the target T2, SARS-CoV-2 S1 (aa16-685) (Wuhan) (SARS-CoV-2 Wuhan, UniProt P0DTC2 16-685).
T2 construct: NRC; FLAG, 6xHis tags
Put plainly: ELISA.
With B7, the binding result is given as “no binding (tested: 13 nM)”.

B8: the binding result is “no binding (tested: 13 nM)”.

For B9, the binding result is “no binding (tested: 13 nM)”.

Regarding B10, the binding result is reported as “no binding (tested: 13 nM)”.

B12: the binding result was “no binding (tested: 13 nM)”.

For the molecule B13, the binding result is listed as “no binding (tested: 13 nM)”.

The next experiment has as its target T3, SARS-CoV-2 S on CHO-S cells (SARS-CoV-2, UniProt P0DTC2 14-1273).
T3 construct: whole, on cells
Briefly: flow cytometry, CHO-S cells. Background: Flow cytometry measures light scatter and fluorescence of single cells or particles in a stream.
One may read the EC50 as the concentration that produces a half-maximal response. Molecule B1 returned a Bmax of 13600 and an EC50 of 8.1 nM.

In turn, B2 showed a Bmax of 17400 and an EC50 of 0.5 nM.

B3 registered a Bmax of 18600 and an EC50 of 0.3 nM.

In turn, B4 returned a Bmax of 18800 and an EC50 of 0.9 nM.

Turning to B5, the Bmax was 15500 and the half-maximal effective concentration (EC50) was 1.3 nM.

The molecule B14 yielded a Bmax of 11600 and an EC50 of 1.4 nM.

For B6, the Bmax was determined as 16200 and the EC50 amounted to 78.9 nM.

Consider B7, for which the Bmax is 7530 and the EC50 is 0.3 nM.

The molecule B8 returned a Bmax of 6860 and an EC50 of 0.1 nM.

On to B9, for which the Bmax is 6660 and the concentration giving a half-maximal response (EC50) came to 6.5 nM.

In turn, B10 showed a Bmax of 10200 and an EC50 of 0.9 nM.

Regarding B15, the Bmax is 12000 and a half-maximal effect (EC50) was put at 15.1 nM.

As for B16, the Bmax came out at 8670 and the response was half-maximal at 132 nM (EC50).

B17 gave a Bmax of 9020 and a concentration for a half-maximal effect (EC50) of 8.5 nM.

For B11, the Bmax was 28000 and the EC50 is 1.3 nM.

The molecule B12 yielded a Bmax of 6950 and a concentration for a half-maximal effect (EC50) of 2.7 nM.

Take B13: the Bmax was determined as 5480 and the EC50 amounted to 1.3 nM.

Another experiment addresses T4, SARS-CoV-2 spike trimer S (Wuhan, SmT1) (SARS-CoV-2 Wuhan).
T4 construct: extracellular domain
Briefly: SPR, antigen on chip. (In general: SPR reads the build-up and loss of mass on a sensor chip optically.)
The Kd is a measure of binding affinity in units of concentration. A high value points to a looser complex. The term koff denotes the rate constant with which the complex falls apart. A low value points to a long-lived complex. Broadly, the kon is a measure of how fast the partners come together. Turning to B18, the Kd turned out to be 1.02 nM, the koff was found to be 0.000115 s⁻¹ and the association rate constant (kon) came to 112000 M⁻¹ s⁻¹.

The target of another experiment is T1, SARS-CoV-2 S2 (aa686-1208) (Wuhan). Put plainly: SPR, antigen on chip.
As for B18, the Kd came to 1.56 nM, the off-rate (koff) worked out at 0.00019 s⁻¹ and the kon came to 122000 M⁻¹ s⁻¹.

The next experiment deals with T2, SARS-CoV-2 S1 (aa16-685) (Wuhan). Put plainly: SPR, antigen on chip.
As to B18, the binding result is reported as “no binding”.
